Assay [1] concerns the target T1, specific receptors for CSF-1 on J774.2 mouse macrophage cells (mouse) (UniProt P09581).
T1 sequence: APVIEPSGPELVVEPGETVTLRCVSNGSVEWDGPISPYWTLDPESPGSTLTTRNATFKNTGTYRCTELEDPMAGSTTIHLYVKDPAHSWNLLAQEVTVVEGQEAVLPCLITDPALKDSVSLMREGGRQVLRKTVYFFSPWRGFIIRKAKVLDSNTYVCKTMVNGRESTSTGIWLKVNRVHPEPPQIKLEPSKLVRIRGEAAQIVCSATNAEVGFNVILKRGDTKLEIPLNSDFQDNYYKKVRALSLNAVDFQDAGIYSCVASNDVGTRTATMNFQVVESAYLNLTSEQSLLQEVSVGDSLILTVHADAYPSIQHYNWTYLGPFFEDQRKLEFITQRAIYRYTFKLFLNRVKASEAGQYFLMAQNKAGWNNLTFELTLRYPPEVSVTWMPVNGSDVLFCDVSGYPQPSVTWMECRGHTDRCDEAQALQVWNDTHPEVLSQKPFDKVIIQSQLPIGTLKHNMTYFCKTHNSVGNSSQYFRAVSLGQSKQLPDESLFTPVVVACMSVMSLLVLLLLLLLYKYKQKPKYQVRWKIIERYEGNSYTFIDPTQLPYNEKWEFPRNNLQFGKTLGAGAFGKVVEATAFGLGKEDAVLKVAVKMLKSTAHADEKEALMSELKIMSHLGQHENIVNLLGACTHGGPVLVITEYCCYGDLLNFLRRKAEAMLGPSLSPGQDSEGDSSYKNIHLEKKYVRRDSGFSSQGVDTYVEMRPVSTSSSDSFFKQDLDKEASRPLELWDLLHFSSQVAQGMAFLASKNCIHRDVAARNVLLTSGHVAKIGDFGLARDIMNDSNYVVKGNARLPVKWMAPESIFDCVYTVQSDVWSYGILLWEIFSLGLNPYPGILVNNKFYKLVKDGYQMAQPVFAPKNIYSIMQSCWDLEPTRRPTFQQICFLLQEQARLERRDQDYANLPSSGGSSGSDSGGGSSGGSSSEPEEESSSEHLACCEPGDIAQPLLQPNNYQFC

The target of assay [2] is T1, specific receptors for CSF-1 on J774.2 mouse macrophage cells (mouse). The source holds these as a separate data set.
The target in assay [3] is T2, specific receptors for CSF-1 on J774.2 mouse macrophage cells (mouse, UniProt P09581).
T2 sequence: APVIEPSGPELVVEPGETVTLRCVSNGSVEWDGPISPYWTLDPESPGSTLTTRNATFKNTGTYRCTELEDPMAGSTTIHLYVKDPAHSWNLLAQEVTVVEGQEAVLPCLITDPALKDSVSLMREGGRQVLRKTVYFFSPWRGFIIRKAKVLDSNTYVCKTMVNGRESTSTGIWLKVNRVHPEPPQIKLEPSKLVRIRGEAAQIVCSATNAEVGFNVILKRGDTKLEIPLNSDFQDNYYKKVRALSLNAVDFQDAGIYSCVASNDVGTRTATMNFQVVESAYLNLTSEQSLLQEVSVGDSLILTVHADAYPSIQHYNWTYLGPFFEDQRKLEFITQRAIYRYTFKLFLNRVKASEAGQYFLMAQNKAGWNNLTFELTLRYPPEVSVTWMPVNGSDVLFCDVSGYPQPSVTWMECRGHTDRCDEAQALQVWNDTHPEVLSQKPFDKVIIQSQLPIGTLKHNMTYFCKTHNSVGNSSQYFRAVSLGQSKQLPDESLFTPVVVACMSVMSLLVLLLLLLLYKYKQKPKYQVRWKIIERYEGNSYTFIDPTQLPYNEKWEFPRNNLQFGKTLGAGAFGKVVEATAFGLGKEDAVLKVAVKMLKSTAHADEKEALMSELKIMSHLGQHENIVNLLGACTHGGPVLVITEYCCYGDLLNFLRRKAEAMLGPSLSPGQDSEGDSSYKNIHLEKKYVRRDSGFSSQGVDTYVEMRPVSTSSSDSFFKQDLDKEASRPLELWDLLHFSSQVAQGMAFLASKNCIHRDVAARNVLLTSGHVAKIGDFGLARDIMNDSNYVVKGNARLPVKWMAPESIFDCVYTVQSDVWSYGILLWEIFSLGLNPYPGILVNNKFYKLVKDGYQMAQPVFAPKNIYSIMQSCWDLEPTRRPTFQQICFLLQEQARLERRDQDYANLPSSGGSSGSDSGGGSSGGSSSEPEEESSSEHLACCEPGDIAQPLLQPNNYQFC
Nature of the assay: cell-based or functional assay.

Assay [4] has as its target rabbit antisera raised against human urinary CSF-1. Put plainly: radioimmunoassay using anti-CSF antibodies, COS-A2 supernatant.
The target is the same in assay [5]. Nature of the assay: radioimmunoassay using anti-CSF antibodies, COS-A2 supernatant; first of three values.
Assay [6] deals with T1, specific receptors for CSF-1 on J774.2 mouse macrophage cells (mouse). Nature of the assay: radioreceptor assay: competition with 125I-labelled CSF-1 for receptors on J774.2 mouse macrophage cells; MIAPaCa supernatant as standard.
Assay [7] deals with "Rabbit 52" polyclonal antiserum raised against purified human urinary CSF-1. Put plainly: radioimmunoassay: competition with 125I-labelled MIAPaCa CSF-1 for Rabbit 52 antiserum; medium of SV40-infected CV-1 cells.

“And” between values parts separate entries of the source, which are not always exact repeats. Identical values can stand only once.

As for “pro52 SCSF, expression product of pCSF-pro52 (ligand)”, in assay [1], the Bone Marrow Assay, Colony (units/ml) is below 100 units/ml and the Bone Marrow Assay, Proliferation (units/ml) is below 25 units/ml. “asp59 SCSF/C∇150, expression product of pCSF-asp59-gly150 (ligand)” gave a Mouse Bone Marrow Colony Assay, Colony Forming Units/ml (Colony Forming Units/ml) in assay [2] of 131000. In assay [1], “asp59 SCSF, expression product of pCSF-asp59 (ligand)” returned a Bone Marrow Assay, Colony (units/ml) of 9000 units/ml and a Bone Marrow Assay, Proliferation (units/ml) of 3380 units/ml.

Regarding “asp59 SCSF/C∇158, expression product of pCSF-asp59-BamBcl (ligand)”, the Mouse Bone Marrow Colony Assay, Colony Forming Units/ml (Colony Forming Units/ml) in assay [2] is 72000. As to “gln52 SCSF, expression product of pCSF-gln52 (ligand)”, in assay [1], the Bone Marrow Assay, Colony (units/ml) turned out to be 6210 units/ml and the Bone Marrow Assay, Proliferation (units/ml) was found to be 2970 units/ml.

B1: SCSF/C∇150, expression product of pCSF-Gly150 (ligand)
chain: EEVSEYCSHMIGSGHLQSLQRLIDSQMETSCQITFEFVDQEQLKDPVCYLKKAFLLVQYIMEDTMRFRDNTPNAIAIVQLQELSLRLKSCFTKDYEEHDKACVRTFYETPLQLLEKVKNVFNETKNLLDKDWNIFSKNCNNSFAECSSQG
Take B1: the “Bone Marrow Assay, Colony (units/ml)” value in assay [3] was determined as 55700 units/ml. The molecule further came in with a Radioimmunoassay (units/ml) in assay [4] of 26800 units/ml.

B2: expression product of pCSF-Bam: 158 amino acids of CSF-1 fused to six vector-derived residues (ligand)
chain: EEVSEYCSHMIGSGHLQSLQRLIDSQMETSCQITFEFVDQEQLKDPVCYLKKAFLLVQYIMEDTMRFRDNTPNAIAIVQLQELSLRLKSCFTKDYEEHDKACVRTFYETPLQLLEKVKNVFNETKNLLDKDWNIFSKNCNNSFAECSSQGHERQSEGSRHDKIH
For B2, the Radioimmunoassay (units/ml) in assay [5] stood at 9600 units/ml. Further, the “Bone Marrow Assay, Colony (units/ml)” value in assay [3] stood at 22600 units/ml.

B3: SCSF, expression product of pcCSF-17 (short form of human CSF-1) (ligand)
chain: EEVSEYCSHMIGSGHLQSLQRLIDSQMETSCQITFEFVDQEQLKDPVCYLKKAFLLVQYIMEDTMRFRDNTPNAIAIVQLQELSLRLKSCFTKDYEEHDKACVRTFYETPLQLLEKVKNVFNETKNLLDKDWNIFSKNCNNSFAECSSQGHERQSEGSSSPQLQESVFHLLVPSVILVLLAVGGLLFYRWRRRSHQEPQRADSPLEQPEGSPLTQDDRQVELPV
In assay [1], B3 registered a Bone Marrow Assay, Colony (units/ml) of 11100 units/ml and a Bone Marrow Assay, Proliferation (units/ml) of 2800 units/ml. Further, the CSF-1 concentration by radioreceptor assay in assay [6] was 2470 U/ml and 3240 U/ml. This molecule also came in with a Radioimmunoassay (units/ml) in assay [5] of 3130 units/ml. In assay [7], this molecule came in with a CSF-1 by radioimmunoassay (U/ml) of 2340 U/ml.

B4: SCSF/C∇158, expression product of pCSF-BamBcl (ligand)
chain: EEVSEYCSHMIGSGHLQSLQRLIDSQMETSCQITFEFVDQEQLKDPVCYLKKAFLLVQYIMEDTMRFRDNTPNAIAIVQLQELSLRLKSCFTKDYEEHDKACVRTFYETPLQLLEKVKNVFNETKNLLDKDWNIFSKNCNNSFAECSSQGHERQSEGS
B4: the Radioimmunoassay (units/ml) in assay [5] was determined as 8800 units/ml.

B5: SCSF/C∇158, expression product of pCSF-BamTGA (ligand)
chain: EEVSEYCSHMIGSGHLQSLQRLIDSQMETSCQITFEFVDQEQLKDPVCYLKKAFLLVQYIMEDTMRFRDNTPNAIAIVQLQELSLRLKSCFTKDYEEHDKACVRTFYETPLQLLEKVKNVFNETKNLLDKDWNIFSKNCNNSFAECSSQGHERQSEGS
The molecule B5 returned a Radioimmunoassay (units/ml) in assay [5] of 8450 units/ml.
